B1: TPR t1 (parent)
chain: GACCAAUCUGCCCUCAGAGCUCGAGAACAUCUUCGGAUGCAGAGGAGGCAGGCUUCGGUGGCGCGAUAGCGCCAACGUCCUCAACCUCCAAUGCAUCCCACCACAUGAUGAUGCCUGAAGAGCCUUGGUUUUUUG

Variants of: B1
Experiment: polymerase ribozyme fitness, log enrichment relative to wild type (log ratio); higher = more active; in vitro selection for triplet polymerase activity
Summary of the method: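 In triplicate, a single round of in vitro selection was run on each mutant library, PCR-built and transcribed, covering one subunit of a heterodimeric triplet polymerase ribozyme. Frozen incubation at −7 °C followed annealing with a biotinylated primer, partner subunit and triplets, and extended constructs were then gel-excised, streptavidin-captured and taken through RT-PCR. Fitness is the logarithm of genotype enrichment over wild-type enrichment, from inverse-variance-weighted replicate averages of Illumina-sequenced inputs and outputs. […] only genotypes with ≥10 input reads and ≥1 read per output were kept.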

| Variant | polymerase ribozyme fitness (log ratio) |
| --- | --- |
| A43U U106A A108U U112A | -2.46 |
| A43U C76A C85G G120A U130C | -1.34 |
| A43G G58C C62A C85U | -6.11 |
| A43U C49G U54A | -2.2 |
| A43U G93A A119C G120A | -2.58 |
| A43G G44U G48A U78C C124A | 0.343 |
| A43G G63U C115U | -4.05 |
| G44A G63A A111C G122A | -5 |
| A43U U112G G127U | -2.19 |
| A43U C62G C82A C101A C123G | -4.38 |
| G44U A50U G60C C101A C115A | -4.05 |
| A43U A91U G110A G120C | -5.56 |
| A43U G61A C73A C88A G93A A121U | -2.52 |
| A43U C49A G51C C56G G63C U106A | -7.03 |
| G44C C80A G110U C124A | -6.53 |
| G44A G63U | -1.78 |
| G44A C72G U96G | -2.52 |
| A43U C115A C124U | -0.864 |
| G44C U116G C124G | -3.04 |
| A43U C56A C73A U109A | -5.95 |
| A43G G61U C114A G127C U132A | -3.36 |
| G44A C62A C88U C89U G128C U129G | -2.95 |
| A43U C88A | -1.18 |
| G44C C94G A121G | 0.2 |

| Variant | polymerase ribozyme fitness (log ratio) |
| --- | --- |
| G44A A111U U132A | -3.18 |
| G44C C88A U109A | -5.8 |
| A43U C82G A119G C123U C124A | -0.662 |
| G44U A46U G71U C114G U132A | -4.18 |
| A43U G60U C123G U132G | 0.532 |
| G44C C70G A119U | -5.47 |
| A43U G52C C72U | -2.16 |
| G44C U78C C115G C123U | -4.64 |
| G44A G110C | -4.8 |
| G44C G47A G61U U133A | -1.13 |
| A43U C123A | -1.02 |
| A43U A46U C56A | -2.93 |
| A43G G113A | -2.18 |
| A43U A121G | 1.17 |
| G44A C73A U87G | -0.428 |
| A43G C70U | -2.76 |
| G44A U54A C62A U106A | -3.38 |
| A43U A46G C53G U87C C115U | -2.37 |
| A43U G48U A50U C62U C88G C101G U112A | -5.19 |
| G44C G47U G48A | -1.43 |
| A43G C56A G57U U59C A84C C86U | -3.81 |
| A43U G71C | -2.56 |
| A43U U129A | -2.81 |
| G44A C70G | -4.21 |

| Variant | polymerase ribozyme fitness (log ratio) |
| --- | --- |
| G44A G58U U81A | -1.79 |
| A43G U112A | -0.27 |
| G44C C56G G69U | -2.28 |
| G44C A74C A111C | -0.547 |
| G44C U81A C89U G110U | -4.45 |
| A43U A46U G58C G60A | -2.67 |
| G44A U55G G63C | -0.567 |
| A43U G45U G110U | -3.95 |
| A43U A111C | -1.94 |
| G44C G69A A91G A103C C115U | -5.28 |
| A43U C73A C104A G113U | -5.13 |
| G44A A66G U133G | -2.29 |
| A43U C76A G135U | -3.89 |
| G44A G48C | -1.44 |
| G44U A84G G120C U130G | -2.91 |
| A43U G51U G71A C79A U112G | -6.57 |
| A43G C53G | -2.54 |
| G44C G60A | -1.01 |
| A43U A90C G110A A111G U132A | -0.915 |
| G44A C80A C124A | -3.54 |
| G44C A83G A111C | -2.73 |
| A43G G110C | -2.35 |
| G44A C49U G117C U133G | -5.23 |
| G44A A66U C76A | -4.64 |

| Variant | polymerase ribozyme fitness (log ratio) |
| --- | --- |
| G44C G63A C86A | -3.09 |
| A43G C89U | -1.2 |
| G44A C72A | -0.836 |
| G44C U87A | -1.07 |
| A43U G45A C56A | -1.86 |
| A43G G107U G110C A118U C124A | -7.12 |
| A43U A46U | -2.27 |
| A43U G61A U92A G93C | -1.44 |
| A43U G45A U96A A108G C123G | -4.02 |
| G44A G60U A108U C115A A121U | -4.86 |
| A43U U92A U106A | -2.69 |
| G44A G51U A121G | -3.43 |
| G44C C64U A111G | -0.526 |
| G44U A46C A95G | -3.59 |
| A43G G45U C72G | -2.45 |
| G44A U130C | -0.447 |
| G44A C72U A84U | -1.47 |
| A43U G44C | -1.05 |
| G44U A46U C89A | -0.411 |
| G44A C99A C114A | -5.96 |
| G44A U81G U87G A90G | -4.02 |
| G44A A95C | -1.35 |
| G44A C72G C97U G113U G117A | -6.18 |
| A43G G71A A100U | -6.07 |

| Variant | polymerase ribozyme fitness (log ratio) |
| --- | --- |
| A43U G44C G45A A83C G110A | -6.81 |
| G44C A121C | 0.904 |
| A43U A74U C104U C115U | -3.23 |
| G44A C73G C85A U130A | -3.2 |
| A43U G47C G113U | -3.6 |
| A43U C73G C85U C98G C115U | -7.11 |
| G44A U78A G93U | -1.85 |
| A43U U112A | -0.216 |
| A43U U112G | -1.93 |
| G44A G60A A68G C85U U106A U129C | -5.96 |
| G44C C115G | -2.64 |
| G44C | -0.805 |
| G44U | -1.16 |
| G44A | -0.794 |
| G44C A91C G120A | -0.836 |
| A43U G45A C53U C56G C62U A84U | -1.89 |
| A43U U92C U112G | -2.71 |
| A43G C101U A108G | -2.96 |
| G44A U55A C85G G113A | -3.2 |
| G44C C72G C88U C101U | -2.47 |
| A43U C53U C72A A91U A105G U106A U125G | -2.96 |
| A43G U92A | -2.96 |
| A43U G63U | -3.68 |
| G44A C49U U54G U59A G61A A119G | -7.24 |

| Variant | polymerase ribozyme fitness (log ratio) |
| --- | --- |
| G44C C53A C72U C88U A100U | -0.423 |
| G44U A90U | -2.78 |
| G44A A103U | -5.44 |
| G44A A103G | -6.14 |
| G44A U112A | 0.126 |
| G44A G51A C76A U92A G117C | -6.37 |
| G44C G120C | -0.584 |
| A43U C73U C123G G127C | -1.76 |
| A43U G48A A100C A111G | -5.16 |
| G44C G77A | -0.814 |
| G44C A95G A118G | -1.3 |
| A43G G45U U59A A66U | -5.27 |
| A43U A50U U81A A91G U92G | -3.02 |
| G44U A91U | -2.13 |
| A43G C124G | 0.268 |
| A43G G60A G107C C114U G120U U133G | -3.85 |
| G44A G60A A121C G122U | -1.92 |
| G44C G58C A121G | 1.21 |
| G44C G71U | -2.2 |
| A43U C85A | -2.96 |
| A43U | -1.2 |
| A43G G63C C82G | -4.47 |
| G44U C49A | -2.67 |
| A43U G120C U132A | 0.0679 |

| Variant | polymerase ribozyme fitness (log ratio) |
| --- | --- |
| G44A C101G U133C | -2.92 |
| G44C U106C G135C | -1.28 |
| A43U C88U A95C | -2.51 |
| G44A A95C C123G U132A | -1.17 |
| A43U C56U | -1.59 |
| G44U A46C G52U G61U C124A | -3.53 |
| A43U G48A | -1.56 |
| G44U C49A C56U G117A | -2.64 |
| G44A C72A G110A G122A C124A | -3.56 |
| A43G G52U | -2.44 |
| A43U C70G G117A | -6.87 |
| A43U C56U C79A | -3.22 |
| A43U G135U | -0.971 |
| A43G U59A C99U | -6.09 |
| G44C C49U | -2.11 |
| A43U G45A G58C G69U | 0.218 |
| G44A G47U | -2.36 |
| A43U A50C C73U U78C C94G | -4.28 |
| G44C A111G | -0.351 |
| G44A C56G C76A C86A | -2.93 |
| G44C C102A G120U | -4.59 |
| A43U G45A G58C | -1.24 |
| G44C A46U G58A G63U G117A U130G | -6.42 |
